One block for each binder: values may come before it.
Target: human Claudin 18.2 (human)
Assay: cell-based or functional assay

IC50 (ng/ml), ADCC effect (FcrR3A-V158-NFAT-RE-Jurkat effector cells, Bright-Glo), NUGC4 cells with high expression of Claudin 18.2: 26.2 ng/mL
IC50 (ng/ml), ADCC effect (FcrR3A-V158-NFAT-RE-Jurkat effector cells, Bright-Glo), NUGC4 cells with low expression of Claudin 18.2: 22.4 ng/mL
IC50 (ng/ml), ADCC effect (FcrR3A-V158-NFAT-RE-Jurkat effector cells, Bright-Glo), NUGC4 cells with medium expression of Claudin 18.2: 15.3 ng/mL
B1: h1901-11 (antibody, human IgG1, kappa, V domains shown)
VH: EVQLVESGGGLVQPGGSLRLSCAASGFTFSDYGIHWVRQAPGKGLEWIAYISRGSSTIYYADTVKGRFTISRDNAKNSLYLQMTSLRAEDTAVYYCARGGYDTRNAMDYWGQGTTVTVSS
VL: DIVMTQSPDSLAVSLGERATISCKSSQSLLNSGNQKNYLAWYQQKPGQPPKLLIYGASTRASGVPDRFSGSGSGTDFTLTISSLQAEDVAIYHCQNDLYYPLTFGQGTKLEIKR

IC50 (ng/ml), ADCC effect (FcrR3A-V158-NFAT-RE-Jurkat effector cells, Bright-Glo), NUGC4 cells with high expression of Claudin 18.2: 133 ng/mL
IC50 (ng/ml), ADCC effect (FcrR3A-V158-NFAT-RE-Jurkat effector cells, Bright-Glo), NUGC4 cells with low expression of Claudin 18.2: 183 ng/mL
IC50 (ng/ml), ADCC effect (FcrR3A-V158-NFAT-RE-Jurkat effector cells, Bright-Glo), NUGC4 cells with medium expression of Claudin 18.2: 210 ng/mL
B2: IMAB-362 (antibody, human IgG1, kappa, V domains shown)
VH: QVQLQQPGAELVRPGASVKLSCKASGYTFTSYWINWVKQRPGQGLEWIGNIYPSDSYTNYNQKFKDKATLTVDKSSSTAYMQLSSPTSEDSAVYYCTRSWRGNSFDYWGQGTTLTVSS
VL: DIVMTQSPSSLTVTAGEKVTMSCKSSQSLLNSGNQKNYLTWYQQKPGQPPKLLIYWASTRESGVPDRFTGSGSGTDFTLTISSVQAEDLAVYYCQNDYSYPFTFGSGTKLEIKR

From US20220185881A1 (JIANGSU HENGRUI MEDICINE, published 2022)
